{"source": "paper PMC10018343", "about": "(Nucleic Acids Research, 2023)", "binders": {"B1": {"name": "Bre1^R6BR (Bre1 amino acids 1-212, Rad6-binding region) (domain or fragment, S. cerevisiae, UniProt Q07457 1-212, looked up)", "chain": "MTAEPATKKIKLELSDPSEPLTQSDVIAFQKEALFRCINRRRVDFEALRKQYELSRRECIDVSRKLANIMALIVTLARFIETFCTDANEKQLCREIAQGDETLIVQRSDSFMKLLTKYGKPNTTDSNTNSNASDHIQELTTELKNLRKSKEELFYENSQLTEEISALKEYYTNIIRKYDRDESFTIKRVFKEDKTDAVKELREDEKESNENN"}}, "key": {"[1]": {"molecular_target": "B1", "assay": "SEC-MALS"}, "[2]": {"molecular_target": "the molecule itself", "assay": "SEC-MALS"}, "[3]": {"molecular_target": "T1, biotinylated Bre1^R6BR (Bre1 amino acids 1-212 with AviTag) (S. cerevisiae, UniProt Q07457 1-212, biotin on the AviTag)", "T1 sequence (looked up)": "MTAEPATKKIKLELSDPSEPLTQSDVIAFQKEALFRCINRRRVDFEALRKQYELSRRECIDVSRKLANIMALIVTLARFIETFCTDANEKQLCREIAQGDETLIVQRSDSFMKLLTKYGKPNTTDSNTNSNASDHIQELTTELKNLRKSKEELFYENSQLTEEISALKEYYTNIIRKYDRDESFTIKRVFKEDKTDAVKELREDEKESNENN", "assay": "BLI"}}, "data": [{"binder": "His6Rad6 (amino acids 1-150), co-expressed with Bre1^R6BR (enzyme, S. cerevisiae, UniProt P06104 1-150, looked up) MSTPARRRLMRDFKRMKEDAPPGVSASPLPDNVMVWNAMIIGPADTPYEDGTFRLLLEFDEEYPNKPPHVKFLSEMFHPNVYANGEICLDILQNRWTPTYDVASILTSIQSLFNDPNPASPANVEAATLFKDHKSQYVKRVKETVEKSWE", "values": [{"measurement": "stoichiometry N", "setting": "[1]", "result": "0.5 Rad6 per Bre1^R6BR subunit"}]}, {"binder": "B1", "values": [{"measurement": "stoichiometry N", "setting": "[2]", "result": 2}]}, {"binder": "His6Rad6 (wild type), purified alone as BLI analyte (enzyme, S. cerevisiae, UniProt P06104 1-172, looked up) MSTPARRRLMRDFKRMKEDAPPGVSASPLPDNVMVWNAMIIGPADTPYEDGTFRLLLEFDEEYPNKPPHVKFLSEMFHPNVYANGEICLDILQNRWTPTYDVASILTSIQSLFNDPNPASPANVEAATLFKDHKSQYVKRVKETVEKSWEDDMDDMDDDDDDDDDDDDDEAD", "values": [{"measurement": "Kd", "setting": "[3]", "result": 112, "unit": "nM"}]}]}
